Reference: the nanobody polyreactivity screen of Harvey et al. (2022)

Experiment: yeast display, Sf9 membrane polyspecificity reagent, FACS + sequencing; frameworks hold sequencing errors
Outline: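 Galactose induction of a Saccharomyces cerevisiae BJ5465 synthetic nanobody display library ran 36–48 hours. The cells were then stained for 1 hour at 4 °C with 10% biotinylated, detergent-solubilized Sf9 membrane reagent, pulled down on streptavidin microbeads and FACS-sorted into low and high (top ~1%) gates on expression and reagent-binding fluorescence. Labels for polyreactivity follow the gate of origin.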

| Sequence | polyreactivity (PSR sort gate) |
| --- | --- |
| QVQLVESGGGLVQAGGSLRLSCAASGLIFQHNAMGWYRQAPGKERELVAAISRSAGSTYYADSVKGRFTISRDNAKNTVYLQMNSLKPEDTAVYYCAKRPTPTSKYDTVRYGYWGQGTQVTVSS | low polyreactivity |
| QVQLVESGGGLVQAGGSLRLSCAASGIIFAFYAMGWYRQAPGKERELVATISKSGGRTYYADSVKGRFTISRDNAKNTVYLQMNSLNPEDTAVYYCAARIQYAFGADYYWGQGTQVTVSS | low polyreactivity |
| QVQLVESGGGLVQAGGSLRLSCAASGSIFPHYAMGWSRQAPGKERELVSAISSGGRTYYADSVKGRFTISRDNAKNTVYLQMNSLKPEDTAVYYCAARRIARKGYGYWGQGTQVTVSS | high polyreactivity |
| QVQLVESGGGLVQAGRSLRLSCAASGRIFSTNAMGRYRQAPGKERELVAAITRSSSTYYAYSVKGRFTISLDNAKNTVYLQINSLKPEDTAGYYCAASRFQYKSTQFYYWGQATQVTVSS | high polyreactivity |
| QVQLVESGGGLVQAGGSLRLSSAASGFIFATYAMGWYRQAPGTERELVAAISQSGGGTYYADSVKGRFTISRDNAKNTVYLQMNSLKPEDTAVYYCAVDVSEWYHYDLYYWYYYWGQGTQVTVSS | high polyreactivity |
| QVQLVESGGGLVQAGGSLRLSCAASGRTFYNNAMGWYRQAPGKERELVAVISRGGTTYYPDSVKGRFTISRDNAKNTVYLQMNSLKAEDTSVYYCAKQVPSGDSSSQMGSWGQGTQVTVSS | low polyreactivity |
| QVQLVESGGGLVQAGGSLRLSCAASGNTFYGYAMGWYRQAPGKERELVASITLSGDSTYYADSVKGRFTISRDNAKKTVYLQMNSLKPEDTAVYYCAGVYTYPLGYYHYTYDYWGQGTQVTVSS | low polyreactivity |
| QVQLVESGGGLVQAGGSLRLSCAASGITFGVNTMGWYRQAPGKERELVAAITWRGGSTYYADSVKGRFTISRDNAKNTVYLQMNSLKPEDTAVYYCAAPYDGPVLTVGYDYWGQGTQVTVSS | low polyreactivity |
| QVQLVESGGGLVQAGGSLRISCAASGGIFIRNAMGWYRQAPGKERELFATISNAGSTYADSVKGRFTISRDNAKNTVYLQMNSLKPEDTAVYYCNRVDWTYPVSQGLQEYDYRGQGTQVTVSS | low polyreactivity |
| QVQLVESGGRLVQSGGSLRLSCAASGNTFIPNAMGWYRQAPGKERELVAAIRASGGSTYYADSVKGRFTISRDNAKNTVYLQMNSLKPEDTAVYYCNADIWYKTYDYWGQGTQVTVSS | low polyreactivity |
| QVQLVESGGGLVQAGGSLRLSCAASGSTIIYNTMGWYRQAPGKERELVARITWSGGSTSYADSVKGRFTISRDNAKNTVYLQMNSLKPEDTAVYYCNRRVQARRYRYDYWGQGTQVTVSS | high polyreactivity |
| QVQLVESGGGLVQEGGSLRLSCAASGSIFGVYTMGWYRPEPGKERELVAAINWGGTSTYYADSVKGRFTISRDNAKNTVYLQMNSLKPEDTAVYYCNAERRRRYPYNYWGHGTQVTVSS | high polyreactivity |
| QVQLVESGGGLVQAGGSLRLSCAASGRTFYYYAMGWYRQAPGKERELVASISSSGRTYYADSVKGRFTISRDNAKNTVYLQMNSLKPEDTAVYYCAKVWSSSYYRYGYWGQGTQVTVSS | high polyreactivity |
| QVQLVESGGGLVQAGGSLRLSCAASGFTFARYAMGWYRQAPGKERELVAAIDRSGGSTYYADSVKGRFTISRDNAKNTVFLQMNSLKPEDTAVYYCNAVSSFTSPRYDYWGQGTQVTVSS | high polyreactivity |
| QVQLVESGGGLVQAGGSLRLSCAASGRIFQGYAMGWYRQAPGKERELVAAISYRGASTYYADSVKGRFTISRDNAKNTVYLQMNSLKPEDTAVYYCAKVTPTSTRGHDYWGQGTQVTVSS | low polyreactivity |
| QVQLVESGGGLVQAGGSLRLSCAASGRIFYSNAMGWYRQAPGKAWELVATISRRGGRTYSADSVKGRFTLSRDIAKNTVYLQMNSLKPEDTAVYYCNANDRNAGSSRGGRLYDSWGQGTQVTVSS | high polyreactivity |
| QVQLVESGGGLVQAGGSLRLSCAASGRTIASYAMGWYRQAPGKERELVAAITSGGSTYYADSVKGRFTISRDNAKNTVYLQMNSLKPEDTAVYYCARIHAIWRGYDYWGQGTQVTVSS | low polyreactivity |
| QVQLVESGGGLVQAGGSLRLSCAASGRIFHYAMGWYRQAPGKERELVAGISKRGGSTYYADSVKGRFTISRDNAKNTVYLQMNSLKPEDTAVYYCAAGRAYDGTKHDYWGQGSQVTVSS | high polyreactivity |
| QVQLVESGGGLVQAGGSLRLSCAASGRTFTAYAMGWYRQAPGKERELVASISSGVTYADSVKGRFTISRDNAKNTVYLQMTSLKPEDTAVYYCAARLWYVQGYVPYVHHRFDYWGQGTQVTVSS | low polyreactivity |
| QVQLVEPGGGIVQAGGSLRLSCAASGYIFYNYAMGWYRQAPGKERELVAAITSGGSTYYADSVKGRFTISRDNAKNTVYFQMNSLKPEDTAVYYCAAYLFPAYSRISNDYWGQGTQVTVSS | high polyreactivity |
| QVQLVESGGGLVQAGGSLRLSCAASGRIFYFYAMGWYRQAPGKERELVASISSGSSTNYADSVKGRFTISRDNAKNTVYLQMNSLKPEDTAVYYCAAQPWHGSRARSYYWGQGTQVTVSS | high polyreactivity |
| QVQLVESGGGLVQAGGSLRLSCAASGRIFGRYAMGWYIQAPGKERELVAAISRSGGITYYADSVKGRFTISRDNAKNTVYLQMNSLKPEDTAVYYCAAYRAGNSYYPRLNYWGQGTQVTVSS | high polyreactivity |

| Sequence | polyreactivity (PSR sort gate) |
| --- | --- |
| QVQLVESGGGLVQAGGSLRLSCAASGITFPYYAKGWYRQAPGKERELVAGISRSGGRTYYADSVKGRFTISRDNAKNTVYLQMNSLKPEDTAVYYCNARKNLLSVTFDYWGQGTQVTVSS | high polyreactivity |
| QVQLVESGGGLVQAGGSLRLSCAASGRIFVPYAMGWYRQAPGKERELVAAITWRGGSTYYADSVKGRFTISRDNAKNTVYLQMNSLKPEDTAVYYCNADEASPWFWFSHLQVGMDYWGQGTQVTVSS | low polyreactivity |
| QVQLVESGGVLVQAGGCLRLSCAASGSIFSVNTMGWYRQAPGKERELVATIRTGDSTNYADSVKGRFTISRDNAKNTVYLQMNSLKPEDTAVYYCAAEWSSLNFEYWGQGSQVTVSS | low polyreactivity |
| QVQLVESGGGLVQAGGSLRLSCDASGSIFDGYGMGWYRQAPGKERELVASITWNDGSTYYAASVKGRFTISRDNATNTVYLQMNSLKPEDTAVYYCAADQWGYEYDYWGQGTQVTVSS | low polyreactivity |
| QVQHVESGVGLVQAGGSLRLSCAASGFIFTINAMGWYRQAPGKERELVAAISWSGGRTYYADSVKGRFTISRDNAKNTVYLQMNSLNPEDTAVYYCNAYPATQYDYESWGQGTQGTVSS | high polyreactivity |
| QVQLVESGGGLVQAGGSLRLSCAASGSIFPTNAMGWYRQAPGKERELVAAITGNGGRTYYADSVKGRFTISRDNAKNTVYLQMNSLKPEDTAVYYCAALTYASNRYGYWGQGTQVTVSS | high polyreactivity |
| QVQLVESGGGLVQAGGSLRLSCAASGRIFDANAMGWYRQAPGKERELVAAITYSGGRTYYADSVKGRFTISRDNAKNTVYLQMNSLKPEDTAVYYCAKRYAYIYDSWGQGTQVTVSS | low polyreactivity |
| QVQLVESGGGLVQAGGSLRLSCAASGNIFRAYAMGWYRQAPGKERELVARISASGGSTYYADSVKGRFTISRDNAKNTVYLQMNSLKPEDTAVYYCAARVRVRLGRNWSSYYYWGQGTQVTVSS | high polyreactivity |
| QVQLVESGGGLVQAGGSLRLSCAASGFIIVRNALGWYRQAPGKERELVAAMRWSGGSTYYADSEKGRFTISRDNSKNTDYLQMNSLKPEDTAVYYCAARLWLKVQYLRFFVYDYWGQGTQVTVSS | low polyreactivity |
| QVQLVESGGGLVQAGGSLRLSCAASGSIFPRNAMGWYRQAPGKERELVAAITTTGGITHYADSVKGRFTISRDNAKNTVYLQMNSLKPEDTAVYYCNASYEYNAGRVETEYDYWGQGTQVTVSS | low polyreactivity |
| QVQLVESGGGLVQEGGSLRLTCAASGRIFQRYAMGWYSPPPGKERELVAVITKRGGNTYYADSVKGRFTLSRDNAKNTVYLQMNSLKPEDTAVYYCATRSGRSTGDYWGQGTQVTVSS | high polyreactivity |
| QVQLVESGGGLVQAGGSLRLSCAASGFTFVNHAMGWYRQAPGKERELVAAISGGRTTNYADSVKGRFTISRDNAKNTVYLQMNSLKPEDTAVYYCAARRYFGLWYFWYDYWGQGTQVTVSS | high polyreactivity |
| QVQLVESGGGLVQAGGSLRLSCAASGSTFDDNAMGWYRQAPGKERELVAAINGDGITTYADSVKGRFTISRDNAKNTVYLQMNSMKPEDTAVYYCNTVGIGAWGYSYPDEDNYWGQGTQVTVSS | low polyreactivity |
| QVQLVESAGGLVQAGGSLSLSCAATGFIFYYNTMGWYRQAPGKERELVAAINSGGSTYYADSVKGRFTISRDNAKNTVYLQMNSLKPEDTAVYYCAKRYAVSSRYYYWGQGTQVTVSS | high polyreactivity |
| QDQLVESGGGLVQAGGSLRLSCAASGSIFRYYAMGWYIQAPGKERELVAAITNSGGSTYYADSVKGRFTISRDNAKNTVYLQMNSLKPEDTAVYYCNARFRARPRMGYWGQGTQVTVSS | high polyreactivity |
| QVQLVESGGGLVQARGSLRLSCAASGSTFPYYAMGWYRQAPGKARELVAAITSSTGRTYYADSVKGRFTISRDNAKNTVYLQMNSLKPEDTAVYYSNAEVYSDPYNDHDYWGQGTQVTVSS | low polyreactivity |
| QVQLVESGGGLVQAGGSLRLSCAASGTFPDYAMGWYRQAPGKERELVAAITYRGGSTYYADSVKGRFTISRDNAKNTVYLQMNSLKPEDTAVYYCAADVVNAYKSLLVGDMYYWGQGTQVTVSS | high polyreactivity |
| QVKLVESGGGLVQAGGSLRLSCAASGFTFSRNTRGWYRQAPGKERELVAAIDSTGGSTYYADSEKGRFTISRDNAKNTVYLQMNCLNPEDTAVYYCATVLPDGRVRLRILWGKRVWYDYWGQGTHVTVSS | low polyreactivity |
| QVHLVESGGGLVQAGGSLRLSCAASGLTFYSNAMGWYRQAPGKERELVARISTGGSTYADSVKGRFTISRDNAKNTVYLQMNSLKPEDTAVYYCAKLPPRGIDDEYWGQGNQVTVSS | low polyreactivity |
| QVQLVESGGGLVQAGGSLRLSCAASGGTFRYYAMGWYRQAPGKEREFVAAITSSGGSTYYADSVKGRFTISRDNAKKTVYLQMNRLKPEDTAGYYCATDNPFLWWFRPDQHGMGYWGQGTQVTVSS | low polyreactivity |
| QVQLVESGGGLVQAGGSLRLSCAASGGTFGSYTMGWYRQAPGKERELVAAISSGGGTDYADSVKGRFTISRDNAKNTVYLQMNSLIPEDTAVYYCYAKSYYAWGSVRYPQTFDYWGQGTQVTVSS | low polyreactivity |
